The text below walks through data of patent publication US20250026813A1.

This experiment concerns the target SARS-CoV-2 spike trimer protein (wild type), in the envelope of lentiviral pseudovirus particles (SARS-CoV-2) (UniProt P0DTC2). Put plainly: cell-based or functional assay.

With 4A8 (antibody), the Fold change relative to SAD S35 antibody came to 5.44 fold.
